Results as given in patent US20140045211A1 (University of California, published 2014).

What was measured:
[1] = target: T1, CCR1 on HEK293 cells / HEK293 membranes stably expressing CCR1 (UniProt P32246 1-355, limits assumed); experiment: SPA competition assay, HEK293 cells/membranes expressing CCR1; competitor (tracer) CCL3-biotin with 125I-streptavidin
T1 construct: whole, on cells; also called chemokine receptor CCR1
T1 sequence (looked up): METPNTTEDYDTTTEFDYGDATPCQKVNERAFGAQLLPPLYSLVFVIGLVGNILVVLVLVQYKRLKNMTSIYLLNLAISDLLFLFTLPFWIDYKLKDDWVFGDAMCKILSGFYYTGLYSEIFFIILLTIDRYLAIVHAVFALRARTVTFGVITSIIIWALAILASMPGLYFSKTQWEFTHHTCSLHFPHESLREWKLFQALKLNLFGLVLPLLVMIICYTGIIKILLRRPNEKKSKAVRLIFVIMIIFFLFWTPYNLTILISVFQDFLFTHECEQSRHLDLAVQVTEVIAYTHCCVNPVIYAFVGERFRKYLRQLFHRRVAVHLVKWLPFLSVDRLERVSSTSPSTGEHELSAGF
Method: (§1) Scintillation proximity assay (SPA) binding assays (GE Healthcare, Piscataway, N.J.) were conducted essentially as previously described. HEK293 cells stably expressing CCR1 were used for these assays, and untransfected HEK293 cells were used as a control. Assays were undertaken in a 96-well plate format and each data point was assayed in triplicate on a Microbeta plate counter (Perkin Elmer) for 1 min per well. Each well contained 20,000 cells, 0.2 mg WGA-PVT-SPA beads, increasing concentrations of unlabeled competitor chemokine, and either […] ¹²⁵I-CCL3 or […] ¹²⁵I-Streptavidin +400 pM CCL3-Biotin, in a total volume of 100 μL. IC₅₀ values were obtained by nonlinear regression curve fitting using Prism software (GraphPad, La Jolla, Calif.).
(§2) In order to test the use of ¹²⁵I-streptavidin as a surrogate radiolabel in a chemokine SPA assay, competition assays using membranes containing the chemokine receptor CCR1 were performed. CCL3 was used for these assays because ¹²⁵I-CCL3 is commercially available, allowing for a direct comparison. After immobilization of membranes to SPA beads, either radiolabeled chemokine, or a combination of biotinylated chemokine and ¹²⁵I-labeled streptavidin was added. […] In contrast, no binding of CCL3 or competition with CCL14 was observed when CCR1-expressing membranes were replaced with untransfected HEK293 membranes. […]

[2] = target: T1, CCR1 on HEK293 cells / HEK293 membranes …; experiment: SPA competition assay, HEK293 cells/membranes expressing CCR1; competitor (tracer) 125I-CCL3
Method: as §1, §2

- IC50 [1]: 0.9 nM
- IC50 [2]: 2.6 nM
B1: CCL14 (unlabeled; functional form containing residues 9-74) (ligand)
chain: GPYHPSECCFTYTTYKIPRQRIMDYYETNSQCSKPGIVFITKRGHSVCTNPSDKWVQDYIKDMKEN
notes: Whether the entry is already trimmed to 9-74 is so no residue range is applied; Expressed as a His-ubiquitin fusion and cleaved with Usp2-cc to leave the native N-terminus; also called CCL14/HCC-1; HCC-1 (9-74)
